Values of other authors as cited in US7951914B2, “Genetically modified cyclic-nucleotide controlled ion channels” (Forschungszentrum Julich GmbH, priority 2001, dated 2011).

Molecular target: T1, CNG channels comprising the α3 subunits from the epithelium of the nose (Bos taurus, UniProt Q03041)
T1 sequence (Q03041 1-663): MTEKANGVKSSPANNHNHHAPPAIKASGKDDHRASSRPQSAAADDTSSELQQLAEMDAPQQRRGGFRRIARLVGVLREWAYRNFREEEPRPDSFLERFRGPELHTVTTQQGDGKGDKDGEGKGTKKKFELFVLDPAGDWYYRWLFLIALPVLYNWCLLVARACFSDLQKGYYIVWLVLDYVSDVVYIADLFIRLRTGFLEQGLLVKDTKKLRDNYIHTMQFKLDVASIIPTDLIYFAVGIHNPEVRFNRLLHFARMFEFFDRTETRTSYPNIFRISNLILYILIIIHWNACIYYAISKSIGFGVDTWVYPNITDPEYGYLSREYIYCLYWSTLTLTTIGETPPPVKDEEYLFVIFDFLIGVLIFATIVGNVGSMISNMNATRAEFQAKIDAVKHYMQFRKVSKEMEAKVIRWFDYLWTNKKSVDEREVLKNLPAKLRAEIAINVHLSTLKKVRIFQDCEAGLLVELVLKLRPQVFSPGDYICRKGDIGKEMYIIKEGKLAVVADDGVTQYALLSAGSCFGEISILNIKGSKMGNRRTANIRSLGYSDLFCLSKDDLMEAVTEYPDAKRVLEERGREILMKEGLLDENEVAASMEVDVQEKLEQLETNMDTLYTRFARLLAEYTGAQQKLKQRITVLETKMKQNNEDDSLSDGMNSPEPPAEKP
Conditions: Dhallan 1990; Ludwig 1990; cited from earlier work

B1: CNG channels comprising the α3 subunits: prior-art CNG channels of α3 subunits from the epithelium of the nose (protein, UniProt Q16280 1-664, looked up)
Cyclic nucleotide-gated …: MTEKTNGVKSSPANNHNHHAPPAIKANGKDDHRTSSRPHSAADDDTSSELQRLADVDAPQQGRSGFRRIVRLVGIIREWANKNFREEEPRPDSFLERFRGPELQTVTTQEGDGKGDKDGEDKGTKKKFELFVLDPAGDWYYCWLFVIAMPVLYNWCLLVARACFSDLQKGYYLVWLVLDYVSDVVYIADLFIRLRTGFLEQGLLVKDTKKLRDNYIHTLQFKLDVASIIPTDLIYFAVDIHSPEVRFNRLLHFARMFEFFDRTETRTNYPNIFRISNLVLYILVIIHWNACIYYAISKSIGFGVDTWVYPNITDPEYGYLAREYIYCLYWSTLTLTTIGETPPPVKDEEYLFVIFDFLIGVLIFATIVGNVGSMISNMNATRAEFQAKIDAVKHYMQFRKVSKGMEAKVIRWFDYLWTNKKTVDEREILKNLPAKLRAEIAINVHLSTLKKVRIFHDCEAGLLVELVLKLRPQVFSPGDYICRKGDIGKEMYIIKEGKLAVVADDGVTQYALLSAGSCFGEISILNIKGSKMGNRRTANIRSLGYSDLFCLSKDDLMEAVTEYPDAKKVLEERGREILMKEGLLDENEVATSMEVDVQEKLGQLETNMETLYTRFGRLLAEYTGAQQKLKQRITVLETKMKQNNEDDYLSDGMNSPELAAADEP
For B1, the “cGMP concentration that activates the channels” value is listed as 2 µM.
